We go through 2 proteins from article PMC4922666, “L-Tryptophan Production in Escherichia coli Improved by Weakening the Pta-AckA Pathway” (PLoS ONE, 2016).

Where a chain is given by its changes, count along the chain named. Names may count otherwise.

What is called Km is the concentration of substrate that gives half-maximal velocity. In general, kcat refers to the number of substrate molecules converted per active site and unit of time at saturation. As usually defined, the kcat/Km is the second-order rate constant that governs catalysis at low substrate concentration.

Substrate in this data set: CC(=O)SCCNC(=O)CCNC(=O)[C@H](O)C(C)(C)COP(=O)(O)OP(=O)(O)OC[C@H]1O[C@@H](n2cnc3c(N)ncnc32)[C@H](O)[C@@H]1OP(=O)(O)O
The experiment in a line: initial rates, Michaelis-Menten nonlinear regression. It is filed as biochemical, Escherichia coli. The following applies: 100 mM phosphate buffer pH 7.4, 25°C, acetyl-CoA 20-400 μmol/L. An excerpt: initial rates, Michaelis-Menten nonlinear regression on Pta (phosphate acetyltransferase; EC 2.3.1.8)

The mark [1] stands for this setting: natural variant Pta1 from E. coli CCTCC M 2016009.

B1: Pta (phosphate acetyltransferase; EC 2.3.1.8) (Escherichia coli K-12) (protein)
chain: SRIIMLIPTGTSVGLTSVSLGVIRAMERKGVRLSVFKPIAQPRTGGDAPDQTTTIVRANSSTTTAAEPLKMSYVEGLLSSNQKDVLMEEIVANYHANTKDAEVVLVEGLVPTRKHQFAQSLNYEIAKTLNAEIVFVMSQGTDTPEQLKERIELTRNSFGGAKNTNITGVIVNKLNAPVDEQGRTRPDLSEIFDDSSKAKVNNVDPAKLQESSPLPVLGAVPWSFDLIATRAIDMARHLNATIINEGDINTRRVKSVTFCARSIPHMLEHFRAGSLLVTSADRPDVLVAACLAAMNGVEIGALLLTGGYEMDARISKLCERAFATGLPVFMVNTNTWQTSLSLQSFNLEVPVDDHERIEKVQEYVANYINADWIESLTATSERSRRLSPPAFRYQLTELARKAGKRIVLPEGDEPRTVKAAAICAERGIATCVLLGNPAEINRVAASQGVELGAGIEIVDPEVVRESYVGRLVELRKNKGMTETVAREQLEDNVVLGTLMLEQDEVDGLVSGAVHTTANTIRPPLQLIKTAPGSSLVSSVFFMLLPEQVYVYGDCAINPDPTAEQLAEIAIQSADSAAAFGIEPRVAMLSYSTGTSGAGSDVEKVREATRLAQEKRPDLMIDGPLQYDAAVMADVAKSKAPNSPVAGRATVFIFPDLNTGNTTYKAVQRSADLISIGPMLQGMRKPVNDLSRGALVDDIVYTIALTAIQSAQQQ
notes: full length, untagged by primers (NdeI/HindIII in pET24a, native stop codon), expressed in E. coli BL21(DE3), DEAE-Sepharose purified, about 77 kDa; variant Pta1 (P69L) is natural in E. coli CCTCC M 2016009
For the protein B1, the Km was found to be 89 ± 6.3 µM, the kcat came to 2380 ± 120 s⁻¹ and the kcat/Km worked out at 2.7e+07 ± 3.6e+06 M⁻¹ s⁻¹.

B2: Pta (phosphate acetyltransferase; EC 2.3.1.8) (Escherichia coli K-12; P69L) (protein)
chain: B1 chain with P68L
notes: as for B1
With B2, under setting [1], the Km worked out at 260 ± 13 µM, the kcat worked out at 1480 ± 74 s⁻¹ and the kcat/Km was determined as 5.7e+06 ± 500000 M⁻¹ s⁻¹.
